Molecular target: monkey IL-1Rrp1 endogenous to COS7 cells (monkey)
Assay: cell-based or functional assay

increase in NFκB activity (NFκB-Luc reporter) in COS7 cells transfected with hAcPL alone and stimulated with hIL-18: 8 fold
B1: hAcPL expressed on COS7 cells (receptor)
chain: ERIKGFNISGCSTKKLLWTYSTRSEEEFVLFCDLPEPQKSHFCHRNRLSPKQVPEHLPFMGSNDLSDVQWYQQPSNGDPLEDIRKSYPHIIQDKCTLHFLTPGVNNSGSYICRPKMIKSPYDVACCVKMILEVKPQTNASCEYSASHKQDLLLGSTGSISCPSLSCQSDAQSPAVTWYKNGKLLSVERSNRIVVDEVYDYHQGTYVCDYTQSDTVSSWTVRAVVQVRTIVGDTKLKPDILDPVEDTLEVELGKPLTISCKARFGFERVFNPVIKWYIKDSDLEWEVSVPEAKSIKSTLKDEIIERNIILEKVTQRDLRRKFVCFVQNSIGNTTQSVQLKEKRGVVLLYILLGTIGTLVAVLAASALLYRHWIEIVLLYRTYQSKDQTLGDKKDFDAFVSYAKWSSFPSEATSSLSEEHLALSLFPDVLENKYGYSLCLLERDVAPGGVYAEDIVSIIKRSRRGIFILSPNYVNGPSIFELQAAVNLALDDQTLKLILIKFCYFQEPESLPHLVKKALRVLPTVTWRGLKSVPPNSRFWAKMRYHMPVKNSQGFTWNQLRITSRIFQWKGLSRTETTGRSSQPKEW
